Measurements: patent EP4361176A1 (CHUGAI SEIYAKU KABUSHIKI KAISHA, dated 2024)
Substitutions are numbered along the chain they refer to. Blank lines part the entries; values can stand above or below the binder they belong to.

Experiments:
[1] = target: T1, human FcγRIIb extracellular domain (human, UniProt P31994 43-217); test: SPR (Biacore 8K+), captured antibody, steady state affinity model
T1 construct: extracellular domain; Made by the method of WO2014104165; also called hFcγR IIb; FcyRIIb
T1 sequence (looked up): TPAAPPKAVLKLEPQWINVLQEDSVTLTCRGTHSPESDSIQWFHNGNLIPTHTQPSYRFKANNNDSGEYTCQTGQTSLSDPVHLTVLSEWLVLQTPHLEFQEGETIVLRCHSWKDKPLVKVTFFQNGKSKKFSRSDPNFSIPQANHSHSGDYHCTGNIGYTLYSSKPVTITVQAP

[2] = target: T2, human FcγRIIa H extracellular domain (human, UniProt P12318 34-217); test: SPR (Biacore 8K+), captured antibody, 1:1 Langmuir model
T2 construct: extracellular domain; Made by the method of WO2014104165; also called hFcγR IIa H; FcyRIIaH
T2 sequence (looked up): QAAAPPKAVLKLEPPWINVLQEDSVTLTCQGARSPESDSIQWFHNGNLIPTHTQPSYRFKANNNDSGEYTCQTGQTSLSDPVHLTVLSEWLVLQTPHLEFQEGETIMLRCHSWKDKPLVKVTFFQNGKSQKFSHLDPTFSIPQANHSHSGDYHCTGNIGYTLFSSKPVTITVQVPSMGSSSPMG

[3] = target: T2, human FcγRIIa H extracellular domain; test: SPR; KD of G1d divided by KD of this antibody
[4] = target: T1, human FcγRIIb extracellular domain; test: SPR; KD of G1d divided by KD of this antibody
mCTLA4-His = target: T3, mCTLA4-His (mouse, UniProt P09793 36-161); test: SPR Biacore T200, 100 uM ATP
T3 construct: Mouse CTLA4 extracellular region linked with a His-tag; also called mouse CTLA4; Mouse CTLA4

[5] = target: T4, human CTLA4 (hCTLA4-His-BAP: human CTLA4 extracellular region with C-terminal His-tag and BAP-tag) (human); test: SPR (Biacore T200, 37C), antibody captured, human CTLA4 at 1000 nM, ATP 1 uM
T4 construct: This tie is an inference

[6] = target: T4, human CTLA4 (hCTLA4-His-BAP: human …); test: SPR (Biacore T200, 37C), antibody captured, human CTLA4 at 1000 nM, ATP 100 uM
[7] = target: T4, human CTLA4 (hCTLA4-His-BAP: human …); test: SPR (Biacore T200, 37C), antibody captured, human CTLA4 at 1000 nM, no ATP
[8] = target: T4, human CTLA4 (hCTLA4-His-BAP: human …); test: SPR (Biacore T200, 37C), antibody captured, human CTLA4 at 1000 nM, ATP 10 uM
[9] = target: T5, human CTLA4 (soluble analyte of the Biacore assays of Reference Example 3-3) (human, UniProt P16410 36-161); test: SPR Biacore T200
T5 construct: also called hCTLA4
T5 sequence: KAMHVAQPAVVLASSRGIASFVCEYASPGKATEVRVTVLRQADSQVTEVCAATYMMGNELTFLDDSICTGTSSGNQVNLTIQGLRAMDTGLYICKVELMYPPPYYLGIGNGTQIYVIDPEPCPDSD

Kd [1]: 5.65 µM
Kd [2]: 0.999 µM
Relative value to KD between G1d and hFcgRs [3]: 1.1
Relative value to KD between G1d and hFcgRs [4]: 1.8
B1: H240-G1d/L73-k_glycomab (antibody)
chain 1: not shown
chain 2: DIQMTQSPSSLSASVGDRVTITCRASQDIHKYIAWYQQKPGQAPRLLIQYTSTLQPGVPSRFSGSGSGTDYTFTISSLQPEDIATYYCLQYEQLRTFGGGTKVEIK
modifications: fucose-deficient (afucosylated) Fc sugar chain

fold weaker binding to mouse CTLA4 than to human CTLA4 (mCTLA4-His): ~2 fold
B2: 04H1208-G1m/04L1407-k0MT (antibody, human IgG1, kappa, V domains shown)
VH: EVQLVESGGGLVKPGGSLRLSCAASGFTFSSKTMNWVRQAPGKGLEWVSSISTRSGYIYYARSVKGRFTISRDNAKNSLYLQMNSLRAEDTAVYYCARYGKREDMLWVFDYWGQGTLVTVSS
VL: DIVMTQSPLSLPVTPGEPASISCDGPSTDVGDYNWVHWYQQKPGQAPRLLIYYTSSKPEGVPDRFSGSGSGTDFTLKISRVEAEDVGVYYCQTYAAPLGPTFGQGTKLEIKR

Binding to Human CTLA4 (binding amount per unit amount of antibody) [5]: 0.138
Binding to Human CTLA4 (binding amount per unit amount of antibody) [6]: 0.193
Binding to Human CTLA4 (binding amount per unit amount of antibody) [7]: 0.022
Binding to Human CTLA4 (binding amount per unit amount of antibody) [8]: 0.189
B3: 04H1389-G1m/04L1086-lam1 (antibody, human IgG1, lambda, V domains shown)
VH: B2 VH with R54Q, G56H, R62E
VL: QSALTQPPSASGSPGQTVTISCDGPSTGVGDYNYVHWYQQHPGKAPKLMIYFTSKKPSGVPDRFSGSKSGNTASLTVSGLQAEDEADYFCQTYAAPLGPMFGGGTKLTVLG
notes: Human IgG1 (G1m), human lambda

Binding to Human CTLA4 (binding amount per unit amount of antibody) [5]: 0.12
Binding to Human CTLA4 (binding amount per unit amount of antibody) [6]: 0.151
Binding to Human CTLA4 (binding amount per unit amount of antibody) [7]: 0.03
Binding to Human CTLA4 (binding amount per unit amount of antibody) [8]: 0.154
B4: 04H1389-G1m/04L1305-k0MT (antibody, human IgG1, kappa)
heavy: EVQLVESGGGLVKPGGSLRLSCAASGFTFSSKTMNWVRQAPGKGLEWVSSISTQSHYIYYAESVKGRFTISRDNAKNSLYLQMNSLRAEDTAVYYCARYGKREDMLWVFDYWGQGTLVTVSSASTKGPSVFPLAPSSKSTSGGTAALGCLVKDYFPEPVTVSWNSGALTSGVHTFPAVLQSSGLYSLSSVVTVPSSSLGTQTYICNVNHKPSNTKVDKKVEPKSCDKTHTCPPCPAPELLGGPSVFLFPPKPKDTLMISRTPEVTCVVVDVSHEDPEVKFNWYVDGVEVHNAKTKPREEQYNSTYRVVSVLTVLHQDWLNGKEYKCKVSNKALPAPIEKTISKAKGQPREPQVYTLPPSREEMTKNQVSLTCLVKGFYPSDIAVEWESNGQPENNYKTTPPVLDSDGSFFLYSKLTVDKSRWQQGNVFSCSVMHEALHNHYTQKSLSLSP
light: DIVMTQSPLSLPVTPGEPASISCDGPSTGVGDYNYVHWYQQKPGQAPRLLIYFTSKKPSGVPDRFSGSGSGTDFTLKISRVEAEDVGVYYCQTYAAPLGPMFGQGTKLEIKRTVAAPSVFIFPPSDEQLKSGTASVVCLLNNFYPREAKVQWKVDNALQSGNSQESVTEQDSKDSTYSLSSTLTLSKADYEKHKVYACEVTHQGLSSPVTKSFNRGEC
notes: Human IgG1 (G1m), human kappa

binding result [9]: binds
B5: 04H1389v373-G1m/04L1086-lam1 (antibody, human IgG1, lambda)
heavy: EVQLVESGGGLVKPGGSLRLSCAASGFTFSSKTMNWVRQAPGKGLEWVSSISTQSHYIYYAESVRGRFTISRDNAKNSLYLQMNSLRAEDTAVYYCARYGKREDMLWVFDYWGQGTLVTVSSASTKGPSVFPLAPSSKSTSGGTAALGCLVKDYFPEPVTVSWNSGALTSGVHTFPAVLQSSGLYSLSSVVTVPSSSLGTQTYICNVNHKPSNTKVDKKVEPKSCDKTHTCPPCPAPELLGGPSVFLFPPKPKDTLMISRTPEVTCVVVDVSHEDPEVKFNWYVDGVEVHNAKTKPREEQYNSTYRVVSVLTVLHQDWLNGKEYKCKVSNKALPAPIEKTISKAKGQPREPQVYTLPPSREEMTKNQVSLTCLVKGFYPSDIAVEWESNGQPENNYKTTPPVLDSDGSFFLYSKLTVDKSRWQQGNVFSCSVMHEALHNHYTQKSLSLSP
light: QSALTQPPSASGSPGQTVTISCDGPSTGVGDYNYVHWYQQHPGKAPKLMIYFTSKKPSGVPDRFSGSKSGNTASLTVSGLQAEDEADYFCQTYAAPLGPMFGGGTKLTVLGQPKAAPSVTLFPPSSEELQANKATLVCLISDFYPGAVTVAWKADSSPVKAGVETTTPSKQSNNKYAASSYLSLTPEQWKSHRSYSCQVTHEGSTVEKTVAPTECS

binding result [9]: binds
B6: 04H1637-G1m/04L1086-lam1 (antibody, human IgG1, lambda)
heavy: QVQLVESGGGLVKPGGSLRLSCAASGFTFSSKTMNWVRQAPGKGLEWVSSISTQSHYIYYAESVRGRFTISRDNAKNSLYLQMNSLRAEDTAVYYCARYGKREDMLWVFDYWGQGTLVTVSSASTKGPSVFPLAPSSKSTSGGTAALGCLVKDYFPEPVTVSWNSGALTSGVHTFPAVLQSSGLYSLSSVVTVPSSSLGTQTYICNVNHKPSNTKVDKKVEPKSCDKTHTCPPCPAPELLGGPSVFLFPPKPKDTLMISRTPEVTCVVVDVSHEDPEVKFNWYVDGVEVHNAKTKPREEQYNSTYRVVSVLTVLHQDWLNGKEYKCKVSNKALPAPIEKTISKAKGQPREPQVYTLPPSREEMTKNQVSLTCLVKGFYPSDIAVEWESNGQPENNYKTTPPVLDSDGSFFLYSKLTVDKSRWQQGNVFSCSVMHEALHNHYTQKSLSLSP
light: B5 light
